The text below walks through data of US20240075137A1 (COMPUGEN, published 2024).

Test [1] has as its target T1, PVRIG (FACS-based competition assay of FIGS. 7 and 15) (Homo sapiens, UniProt Q6DKI7).
T1 construct: made because the format of the assay is only described in U.S. Ser. No. 15/048,967; also called human PVRIG
T1 sequence (receptor, looked up): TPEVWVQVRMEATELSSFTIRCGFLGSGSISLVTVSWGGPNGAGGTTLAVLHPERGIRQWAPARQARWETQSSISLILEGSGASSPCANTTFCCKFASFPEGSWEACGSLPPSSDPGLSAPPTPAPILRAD
Put plainly: FACS-based competition assay of PVRIG blocking; format and competitor not given.

The target of test [2] is T2, human PVRIG on cells (human, UniProt Q6DKI7 1-326).
T2 construct: whole, on cells; over-expressed on HEK cells or endogenous on Jurkat and CD8 T cells; also called hPVRIG; HEK hPVRIG cells
T2 sequence (looked up): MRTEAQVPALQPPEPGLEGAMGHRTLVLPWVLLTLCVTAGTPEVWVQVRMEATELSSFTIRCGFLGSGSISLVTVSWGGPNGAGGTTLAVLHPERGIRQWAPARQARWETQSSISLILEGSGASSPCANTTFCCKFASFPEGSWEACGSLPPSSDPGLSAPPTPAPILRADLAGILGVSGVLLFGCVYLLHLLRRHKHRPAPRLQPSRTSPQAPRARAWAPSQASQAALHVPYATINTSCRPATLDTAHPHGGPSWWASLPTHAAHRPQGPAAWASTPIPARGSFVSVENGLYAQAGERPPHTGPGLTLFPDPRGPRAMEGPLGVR
Put plainly: FACS, HEK hPVRIG over HEK parental cells, 3.3ug/ml. (In flow cytometry, cells or beads pass a laser one at a time.)

Test [3] deals with T2, human PVRIG on cells. As to the kind of experiment: FACS, human PBMC, CD56 int. NK cells, 10ug/ml.
Test [4] concerns the target T3, cynomolgus PVRIG on cells (cynomolgus, UniProt A0A2K5WVV8 41-322).
T3 construct: whole, on cells; also called cPVRIG; expi cPVRIG cells
T3 sequence: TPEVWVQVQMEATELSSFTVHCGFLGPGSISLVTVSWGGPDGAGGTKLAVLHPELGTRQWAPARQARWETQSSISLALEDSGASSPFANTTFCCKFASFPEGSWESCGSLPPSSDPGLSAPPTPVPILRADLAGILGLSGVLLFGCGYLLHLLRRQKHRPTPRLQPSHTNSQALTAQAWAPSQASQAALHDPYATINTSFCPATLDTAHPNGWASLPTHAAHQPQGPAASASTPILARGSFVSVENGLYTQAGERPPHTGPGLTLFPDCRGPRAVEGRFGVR
As to the kind of experiment: FACS, expi cPVRIG over expi parental cells, 3.3ug/ml.

Test [5] deals with T2, human PVRIG on cells. As to the kind of experiment: FACS, human PBMC, CD8+ T cells, 10ug/ml.
The target in test [6] is T2, human PVRIG on cells. As to the kind of experiment: FACS, human PBMC, CD56 int. NK cells, 10ug/ml. The source holds these as a separate data set.
Test [7] concerns the target T2, human PVRIG on cells. Put plainly: FACS, human PBMC, CD8+ T cells, 10ug/ml. This is another data set of the same source.
Test [8] addresses T2, human PVRIG on cells. As to the kind of experiment: FACS, HEK hPVRIG cells (HEK OE).
The target of test [9] is T1, PVRIG (FACS-based competition assay of …). Put plainly: FACS-based competition assay of PVRIG blocking; format and competitor not given. This is another data set of the same source.
Test [10] has as its target T2, human PVRIG on cells. As to the kind of experiment: FACS, Jurkat cells, relative to control, 3.3ug/ml.
Test [11] addresses T3, cynomolgus PVRIG on cells. As to the kind of experiment: FACS, expi cPVRIG over expi parental cells, 3.3ug/ml. The source holds these as a separate data set.
The target in test [12] is T2, human PVRIG on cells. As to the kind of experiment: FACS, human PBMC, CD8+ T cells, 10ug/ml. This is another data set of the same source.
The target of test [13] is T2, human PVRIG on cells. As to the kind of experiment: FACS, HEK hPVRIG over HEK parental cells, 3.3ug/ml. The source holds these as a separate data set.
Test [14] deals with T2, human PVRIG on cells. Put plainly: FACS, HEK hPVRIG cells (HEK OE). This is another data set of the same source.
Test [15] deals with T2, human PVRIG on cells. As to the kind of experiment: FACS, human PBMC, CD56 int. NK cells, 10ug/ml. The source holds these as a separate data set.
The target in test [16] is T3, cynomolgus PVRIG on cells. Put plainly: FACS, expi cPVRIG over expi parental cells, 3.3ug/ml. This is another data set of the same source.
Test [17] deals with T2, human PVRIG on cells. Put plainly: FACS, Jurkat cells, relative to control, 3.3ug/ml. The source holds these as a separate data set.

Like-named read-outs stand apart in the source and are kept apart here.

B1: CHA.7.508 (antibody, V domains shown)
VH: EVQLQQSGPDLVKPGASMKISCKASGYTFIDYNIHWVKQSQGKSLDWIGYIYPYNGGTGYNQKFKNKATLTVDSSSSTAYMEVRSLTFEDSAVYFCAREADYYGNRGQFDYWGQGTLVTVSA
VL: DIQMTQSPASLSVSVGETVTITCRASENIFSNLAWYQQKQGKSPQLLVYGEANLADGVPSRFSGSGSGTQYSLKINSLQSEDFGNYYCQHFWGTPYTFGGGTTLEIK
Consider B1, for which the 50% inhibitory concentration (IC50) in test [1] and in test [9] was 37.9 nM throughout. In the test with human PVRIG on cells [2], the “gMFIr HEK OE/par” value came out at 45.9. Moreover, the “gMFIr Human CD56 int. NK” value with human PVRIG on cells [3] and in the test with human PVRIG on cells [6] was 3.6 throughout. Further, the “gMFIr Expi cyno OE/par” value in [4] and in [11] was 41.5 throughout. The “gMFIr Human CD8+ T cells” value in the test with human PVRIG on cells [5] and in the test with human PVRIG on cells [7] was 4.09 throughout. For the same molecule, the midpoint of the response with human PVRIG on cells [8], the EC50, lay at 3.3 nM. For the same molecule, the “gMFIr Jurkat” value with human PVRIG on cells [10] turned out to be 6.5.

B2: CHA.7.514 (antibody, V domains shown)
VH: EVQLRQSGADLVKPGASVKLSCTASGFNIKDTYIDWVKQRPEQGLDWIGRIDPANGNTKYDPKFQGKATIITDTSSNTAYLQLSNLTSEDTAVYYCARYGSYPYFDYWGRGTTLAVSS
VL: SIVMTQTPKFLLISAGDRVTITCKASQSVRNDVAWYQQKPGQSPKLLMYYASNRYTGVPDRFTGSGYGTDFTFTISTVQAEDLAVYFCQQDYSSPPTFGGGTKLEIK
On to B2, for which the IC50 in test [1] and in test [9] was 38.9 nM throughout. Further, the “gMFIr HEK OE/par” value in the test with human PVRIG on cells [2] came out at 49.8. In addition, the “gMFIr Human CD56 int. NK” value in the test with human PVRIG on cells [3] and with human PVRIG on cells [6] was 4.16 throughout. Moreover, the “gMFIr Expi cyno OE/par” value in test [4] and in [11] was 65.2 throughout. The “gMFIr Human CD8+ T cells” value in the test with human PVRIG on cells [5] and with human PVRIG on cells [7] was 5.15 throughout. It took 5.31 nM to reach a half-maximal effect with human PVRIG on cells [8] (EC50). Also, the “gMFIr Jurkat” value with human PVRIG on cells [10] was 7.67.

B3: CHA.7.512 (antibody, V domains shown)
VH: QIQLVQSGPELKKPRETVKISCKASGYTFTDYSMHWVKQAPGKGLKWMGWINTETGEPTYADDFKGRFAFSLEASASSAYLQINILKDEDTATYFCARSRGGYYEDYYALDYWGQGTSVTVSS
VL: DIQMTQSPASLSASVGESVTITCRASGNIHYYLAWYQQKQGKSPQLLVYNAKNLADGVPSRFSGSGSGTQFSLKINSLQPEDFGSYYCQHFWISPPTFGGGTKLEIK
On to B3, for which the IC50 in [1] and in [9] was 840 nM each time. For the same molecule, the “gMFIr HEK OE/par” value with human PVRIG on cells [2] is 5.12. Besides, the “gMFIr Human CD56 int. NK” value in the test with human PVRIG on cells [3] and in the test with human PVRIG on cells [6] was 1.3 in each case. Also, the “gMFIr Expi cyno OE/par” value in test [4] and in test [11] was 8.96 each time. The “gMFIr Human CD8+ T cells” value in the test with human PVRIG on cells [5] and with human PVRIG on cells [7] was 1.15 each time. In addition, the midpoint of the response with human PVRIG on cells [8], the EC50, lay at 53 nM. The “gMFIr Jurkat” value with human PVRIG on cells [10] was found to be 1.47.

B4: CHA.7.544 (antibody, V domains shown)
VH: QVQLKESGPGLVAPSQSLSITCTVSGFSLTSYAITWVRQPPGKGLEWLGVIWPGGGTNYNSALKSRLSISKDNSKSHLFLKMNSLQTDDTARYYCVRSYDGYLDWYFDVWGTGTTVTVSS
VL: NIVMTQSPKSMSMSVGERVTLSCKASENVGTYVSWYQQKPDQSPKLLIYGASNRYTGVPDRFTGSGSATDFTLIISSVQAEDLSDYHCGQSYSYPYTFGGGTKLEII
B4: the “gMFIr Human CD8+ T cells” value with human PVRIG on cells [12] and with human PVRIG on cells [7] was 2.54 each time. In the test with human PVRIG on cells [13], the “gMFIr HEK OE/par” value amounted to 42.6. The “gMFIr Human CD56 int. NK” value with human PVRIG on cells [6] and in the test with human PVRIG on cells [15] was 2.36 each time. For the same molecule, the response in the test with human PVRIG on cells [14] was half-maximal at 0.76 nM (EC50). The “gMFIr Expi cyno OE/par” value in test [16] and in test [11] was 61.1 in each case. In addition, in the test with human PVRIG on cells [17], the “gMFIr Jurkat” value stood at 5.68.

B5: CHA.7.522 (antibody, V domains shown)
VH: QVQLQQPGSELVRPGTSVKLSCKASGYTFTSYWVHWVRQRHGQGLEWIGNVYPGSGSTNYDEKFKSKGTLTVDTSSSTAYMHLSSLTSEDSAVYYCTRGVLRFPLDYWGQGTTLTVSS
VL: DIVMTQAAPSVPVTPGESVSISCRSSKSLLHSNGNTYLYWFLQRPGQSPHLLIYRMSNLASGVPDRFSGSGSGTAFTLRISRVEAEDVGVYYCMQHLEYPLTFGAGTKLELK
For the molecule B5, the concentration for half-maximal inhibition (IC50) in test [1] and in [9] was 50.5 nM throughout. The “gMFIr HEK OE/par” value with human PVRIG on cells [2] is 10.1. Besides, the “gMFIr Human CD56 int. NK” value with human PVRIG on cells [3] and with human PVRIG on cells [6] was 2.06 throughout. For the same molecule, the “gMFIr Expi cyno OE/par” value in [4] and in test [11] was 27.2 each time. Further, the “gMFIr Human CD8+ T cells” value with human PVRIG on cells [5] and with human PVRIG on cells [7] was 1.9 each time. In the test with human PVRIG on cells [8], the EC50 – broadly, the concentration that produces a half-maximal response – is 91.4 nM. Further, the “gMFIr Jurkat” value in the test with human PVRIG on cells [10] turned out to be 2.99.

B6: CHA.7.510 (antibody, V domains shown)
VH: QVTLKESGPGILQPSQTLSLTCSFSGFSLNTSGTGVGWIRQPSGKGLEWLTHIWWNDNKFYNTFLKSRLTISKETSNNQVFLKIASVDTADAATYYCARMAYGNLWFVNWGQGTLVAVST
VL: DIVLTQSPASLAVSLGQRASISCRASRSVTISGYSYMYWYQQKPGQPPRLLFYLASNLASGVPARFSGSGSGTDFTLNIHPVEEEDAAIYYCQHSRELPYTFGGGTKLEIK
As for B6, the IC50 in test [1] and in [9] was 55 nM in each case. Further, the “gMFIr HEK OE/par” value in the test with human PVRIG on cells [2] worked out at 16.3. Besides, the “gMFIr Human CD56 int. NK” value with human PVRIG on cells [3] and with human PVRIG on cells [6] was 3.13 throughout. The “gMFIr Expi cyno OE/par” value in test [4] and in test [11] was 38.2 in each case. Also, the “gMFIr Human CD8+ T cells” value in the test with human PVRIG on cells [5] and in the test with human PVRIG on cells [7] was 2.73 in each case. The molecule also returned an EC50 with human PVRIG on cells [8] of 92.8 nM. The “gMFIr Jurkat” value with human PVRIG on cells [10] is 4.19.
